Data on five substances can be found in patent US20240117018A1.

Holding throughout (experiment): cell-based or functional assay
In experiment [1] the target is HIV-1 Env pseudovirus CNE8 (HIV-1).
Experiment [2] has as its target CNE58 Env pseudovirus (HIV-1).
For experiment [3], the target named is CNE53 Env pseudovirus (HIV-1).
Experiment [4] has as its target 7030102001E5(Rev-) Env pseudovirus (HIV-1).
Experiment [5] concerns the target Du172.17 Env pseudovirus (HIV-1).
Experiment [6] has as its target HIV-16845-2.22 Env pseudovirus (HIV-1).
Experiment [7] has as its target 9004SS_A3_4 Env pseudovirus (HIV-1).
The target of experiment [8] is HIV-001428-2.42 Env pseudovirus (HIV-1).
Experiment [9] has as its target T257-31 Env pseudovirus (HIV-1).
For experiment [10], the target named is 1054_07_TC4_1499 Env pseudovirus (HIV-1).
Experiment [11] concerns the target Q23.17 Env pseudovirus (HIV-1).
Experiment [12] has as its target ZM53M.PB12 Env pseudovirus (HIV-1).
Experiment [13] deals with REJO4541.67 Env pseudovirus (HIV-1).
Experiment [14] has as its target Ce0682_E4 Env pseudovirus (HIV-1).
Experiment [15] has as its target SC422661.8 Env pseudovirus (HIV-1).
The target in experiment [16] is 6244_13_B5_4576 Env pseudovirus (HIV-1).
Experiment [17] deals with CNE30 Env pseudovirus (HIV-1).
The target of experiment [18] is 191955_A11 Env pseudovirus (HIV-1).
In experiment [19] the target is Ce2060_G9 Env pseudovirus (HIV-1).
The target in experiment [20] is ZM249M.PL1 Env pseudovirus (HIV-1).
In experiment [21] the target is TRJO4551.58 Env pseudovirus (HIV-1).
Experiment [22] has as its target 246F C1G Env pseudovirus (HIV-1).
Experiment [23] has as its target CNE52 Env pseudovirus (HIV-1).
Experiment [24] addresses WEAU_d15_410_787 Env pseudovirus (HIV-1).
Experiment [25] concerns the target SC05_8C11_2344 Env pseudovirus (HIV-1).
Experiment [26] has as its target Q259.d2.17 Env pseudovirus (HIV-1).
The target in experiment [27] is CAP45.2.00.G3 Env pseudovirus (HIV-1).
Experiment [28] concerns the target Ce0393_C3 Env pseudovirus (HIV-1).
In experiment [29] the target is HIV-0013095-2.11 Env pseudovirus (HIV-1).
Experiment [30] deals with Q842.d12 Env pseudovirus (HIV-1).
For experiment [31], the target named is RHPA4259.7 Env pseudovirus (HIV-1).
Experiment [32] has as its target CNE19 Env pseudovirus (HIV-1).
For experiment [33], the target named is ZM135M.PL10a Env pseudovirus (HIV-1).
Experiment [34] deals with AC10.0.29 Env pseudovirus (HIV-1).
For experiment [35], the target named is MS208.A1 Env pseudovirus (HIV-1).
Experiment [36] deals with 1394C9G1(Rev-) Env pseudovirus (HIV-1).
The target of experiment [37] is 263-8 Env pseudovirus (HIV-1).
Experiment [38] concerns the target 6240_08_TA5_4622 Env pseudovirus (HIV-1).
The target of experiment [39] is 1006_11_C3_1601 Env pseudovirus (HIV-1).
Experiment [40] deals with MuLV envelope (negative control pseudovirus) (MuLV).
Experiment [41] concerns the target HIV-1 Env pseudovirus 3415.v1.c1 (HIV-1).
The target of experiment [42] is HIV-1 Env pseudovirus T257-31 (HIV-1).
Experiment [43] deals with HIV-1 Env pseudovirus 928-28 (HIV-1).
For experiment [44], the target named is HIV-1 Env pseudovirus 263-8 (HIV-1).

In [1], VRC07 (antibody) gave an IC50 (Titer in TZM.bl cells) of 0.45 µg/mL and an IC80 (Titer in TZM.bl cells) of 1.56 µg/mL.

For the substance PGT121 (antibody), the IC50 in [2] was above 50 µg/mL; in experiment [3] it was 0.007 µg/mL; in [4] it was 0.009 µg/mL; in [5] it was 0.033 µg/mL; in experiment [6], 3.97 µg/mL; in experiment [7], below 0.001 µg/mL. Moreover, the IC50 in experiment [8] is 0.014 µg/mL; in experiment [9] it was above 50 µg/mL; in experiment [10] it was 0.064 µg/mL; in experiment [11] it was below 0.001 µg/mL; in experiment [12] it was below 0.001 µg/mL; in [13] it was 4.77 µg/mL. The IC50 was above 50 µg/mL in experiment [14]; 0.038 µg/mL in [15]; 0.061 µg/mL in [16]; 0.078 µg/mL in [17]; above 50 µg/mL in [18]; above 50 µg/mL in experiment [19]. The IC50 in experiment [20] is above 50 µg/mL; in experiment [21] it was 1.31 µg/mL; in experiment [22] it was 0.041 µg/mL; in experiment [23], 2.04 µg/mL; in experiment [24] it was 0.026 µg/mL; in experiment [25], 0.019 µg/mL. The IC50 in experiment [26] is 15.4 µg/mL; in experiment [27] it was 1.63 µg/mL; in experiment [28], above 50 µg/mL; in experiment [29], above 50 µg/mL; in experiment [30] it was 0.005 µg/mL; in experiment [32], 0.008 µg/mL. The IC50 was 0.716 µg/mL in experiment [33]; 0.024 µg/mL in experiment [34]; above 50 µg/mL in experiment [35]; 0.264 µg/mL in experiment [36]; 0.648 µg/mL in experiment [37]; 0.033 µg/mL in experiment [38]. Besides, the IC50 in [39] was 0.002 µg/mL. Moreover, the IC80 in experiment [2] was above 50 µg/mL; in experiment [3], 0.024 µg/mL; in experiment [4], 0.027 µg/mL; in [5], 0.257 µg/mL; in experiment [6], 44.6 µg/mL; in [7] it was 0.003 µg/mL. Moreover, the IC80 was 0.051 µg/mL in [8]; above 50 µg/mL in [9]; 0.304 µg/mL in experiment [10]; 0.005 µg/mL in experiment [11]; 0.004 µg/mL in experiment [12]; above 50 µg/mL in experiment [13]. The IC80 is above 50 µg/mL in [14]; 0.177 µg/mL in experiment [15]; 0.347 µg/mL in experiment [16]; 0.291 µg/mL in experiment [17]; above 50 µg/mL in experiment [18]; above 50 µg/mL in experiment [19]. Further, the IC80 in experiment [20] was above 50 µg/mL; in [21], 37.9 µg/mL; in experiment [22], 0.14 µg/mL; in experiment [23], 18.9 µg/mL; in experiment [24], 0.077 µg/mL; in [25] it was 0.071 µg/mL. The concentration for an effect of 80% (IC80) in experiment [26] is above 50 µg/mL; in [27], above 50 µg/mL; in experiment [28], above 50 µg/mL; in experiment [29] it was above 50 µg/mL; in experiment [31] it was 0.035 µg/mL; in experiment [32], 0.105 µg/mL. Also, the IC80 was 5.25 µg/mL in [33]; 0.073 µg/mL in experiment [34]; above 50 µg/mL in experiment [35]; 1.95 µg/mL in [36]; 3.96 µg/mL in [37]; 0.127 µg/mL in [38]. In experiment [39], this substance yielded an IC80 of 0.007 µg/mL.

As to N49P7 (antibody), in experiment [40], the IC50 (neutralisation, TZM.bl cells) was above 50 µg/mL; the IC80 (neutralisation, TZM.bl cells) is above 50 µg/mL; the MPI stood at 9.

For the substance VRC01 (antibody), the IC50 (Titer in TZM.bl cells) was determined as 0.06 µg/mL in experiment [41], 2.8 µg/mL in [42], 0.41 µg/mL in experiment [43] and 0.2 µg/mL in experiment [44]. The IC80 (Titer in TZM.bl cells) came to 0.15 µg/mL in experiment [41], 8.66 µg/mL in [42], 1.7 µg/mL in experiment [43] and 0.55 µg/mL in experiment [44].

With N49P7.1 (antibody), in experiment [40], the IC50 (neutralisation, TZM.bl cells) is above 50 µg/mL; the IC80 (neutralisation, TZM.bl cells) was above 50 µg/mL; the MPI was found to be 4.
